For two sequences, binding results are on record in paper PMC6907008.

For data set [1], the target named is T1, HisZea (Lmo2686) (Listeria monocytogenes EGD-e) (UniProt Q8Y3Z3).
T1 sequence: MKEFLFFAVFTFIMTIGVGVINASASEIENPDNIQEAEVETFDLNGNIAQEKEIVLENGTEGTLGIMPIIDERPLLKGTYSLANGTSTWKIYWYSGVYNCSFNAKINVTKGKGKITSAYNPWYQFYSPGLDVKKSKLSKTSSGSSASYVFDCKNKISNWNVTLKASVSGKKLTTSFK
Description: EMSA. Conditions: EMSA: 50 mM Tris pH 8.0, 300 mM NaCl, 10% glycerol, 50 ug/mL BSA, 1 ug yeast tRNA, 20 min room temperature; pull-down: 25 mM Tris pH 8.0, 150 mM KCl, 5 mM …. On the technique in general: Mobility shift assays separate free from complexed probe on a gel.

Data set [2] addresses T1, HisZea (Lmo2686) (Listeria monocytogenes EGD-e). Description: competition. Conditions: EMSA: 50 mM Tris pH 8.0, 300 mM NaCl, 10% glycerol, 50 ug/mL BSA, 1 ug yeast tRNA, 20 min room temperature; pull-down: 25 mM Tris pH 8.0, 150 mM KCl, 5 mM ….

For “GGAGUAGAAAAGACCAAUGUGGGUUCUUUUUUAUUUUGUCUUAAUAACUCUAAACCACAGACAAAUAUAAAUUGGAAAUCAACGUAAUAAUCGUAUUUCCUAUUACAAUAAUCGAGAUAUUGUCACACCCUGAAAUAUAAUUGUAAUGCAAUUAACCUAUAGAUGAAAAACUGU [rli143]”, the binding result in data set [1] and in data set [2] was “binds” throughout.
Regarding “GGGUGUAAAAUGCAGCUUGAGUAAAAUGAAUGAGUGUGUUGUUUACCCCCAGAUUUAAUUCUGUGGUAUAUCGCGUAACCGGCGGCUGCUAUGGUGAUGGUAUAUGAAGGUAAACUGCCCUGAUUUGGUUUUACGUCACGUUUGUUUUAUAC [rli92]”, the binding entry in data set [1] and in data set [2] was “binds” in each case.
